{"source": "patent US11407811B2", "about": "“Fusion protein, preparation method therefor and use thereof” (JIANGSU RONGTAI BIOTECH CO., LTD., priority 2017, dated 2022)", "key": {"[1]": {"test_system": "diabetic retinopathy rat model", "assay": "Neovascularization in diabetic retinopathy rat model (STZ)", "type": "in vivo", "details": "100 μg dose, intravitreal injection", "procedure": "The experimental diabetic rat model was established with streptozotocin STZ. STZ was dissolved in 0.1 mol/L citrate buffer at pH 4.5 to prepare a 2% solution. All experimental Wistar rats were fasted for 12 h before injection, and each rat was intraperitoneally injected with a 2% STZ solution at a dose of 65 mg/kg. After the injection, the rats were fed in single cages, and urine sugar and blood sugar were detected at the 48th hour. When urine sugar was +++ or above, and blood glucose was higher than 16.7 mmol/L, the model establishment requirement is reached. The diabetic retinopathy model was successfully established by detecting blood glucose, urine glucose, and urine volume and retinal VEGF immunohistochemistry.\n15 rats were randomly divided into […], which were labeled as a control group, and fusion protein I, protein II, protein III, protein IV and protein V treatment groups. The administration was performed via intravitreal injection once every 5 days for 2 weeks, in which the control group was injected with physiological saline (0.1 mL), and the fusion protein I, protein II, protein III, protein IV, and protein V were all administered with 100 μg (0.1 mL). Observation was performed on week 4, week 8, and week 12."}, "liver cancer cell Hep-G2": {"test_system": "liver cancer cell Hep-G2", "assay": "MTT assay, proliferation of liver cancer cell Hep-G2", "type": "cell-based", "procedure": "(§1) The MTT assay was used to detect the inhibitory effect of the integrin blocker fusion protein obtained in Example 1 on the proliferation of various tumor cells, including melanoma cell B16F10, gastric cancer cell MGC-803, lung cancer cell A549, liver cancer cell Hep-G2, breast cancer cell MDA-MB-231, colon cancer cell HCT-116, human glioma U87, and cervical cancer cell Hela.\n(§2) The tumor cells were cultured in a 5% CO2 incubator at 37° C. to a density of 90% or more, and collected by trypsinization. The cells were resuspended in the culture liquid and counted under a microscope. The cell concentration was adjusted to 3.0×10^4 cells/mL. The cell suspension was inoculated into a 96-well plate at 100 μL per well and cultured overnight in a 5% CO2 incubator at 37° C. […] After the cells were fully adhered, each dilution was added to a 96-well plate at 100 μL per well, respectively. […] 20 μL of 5 mg/mL MTT was added to each well of a 96-well plate, and incubation was continued for 4 hours. The medium was aspirated and 100 μL of DMSO per well were added to dissolve. The absorbance was measured at 570 nm with a microplate reader with a reference wavelength of 630 nm, and the proliferation inhibition (PI) was calculated. The formula is as follows: […]\n(§3) where Ntest is the OD value of the test group and Ncontrol is the OD value of the blank control group.\n(§4) The test was repeated 5 times independently. The results obtained from the test were calculated as mean±SD, and statistical t-test was performed. P<0.05 was considered as a significant difference, and P<0.01 was considered as an extremely significant difference."}, "[2]": {"test_system": "human umbilical vein endothelial cells (HUVEC)", "assay": "Three-dimensional transwell assay, migration of HUVEC", "type": "cell-based", "procedure": "Human umbilical vein endothelial cells (HUVECs) were cultured with endothelial cell culture fluid containing 5% fetal bovine serum and 1×ECGS in a 5% CO2 incubator at 37° C., to a confluence of 90% or more, and then inhibitory effects of fusion protein I, protein II, protein III, protein IV, and protein V on migration of endothelial cells were detected by transwell assay, in which only endothelial cells HUVEC of passage 2 to 8 were used, and the specific operation was as follows.\n(1) 10 mg/mL Matrigel was diluted with a DMEM medium at a ratio of 1:4, coated on a transwell chamber membrane, and air-dried at room temperature.\n(2) HUVEC cells cultured to logarithmic phase were digested with 0.2% EDTA, collected, washed twice with PBS, followed by resuspended in an endothelial cell culture liquid containing 0.1% BSA, counted under a microscope, and the cell concentration was adjusted to 1×10^5 cells/mL;\n(3) Test solutions for each group were formulated and diluted to 100 μL with a cell culture liquid containing 0.1% BSA;\nGroups were divided as follows:\nBlank control group: a cell culture liquid containing no drug;\nEndostar group: 5 mg/mL Endostar solution diluted to a predetermined concentration with a cell culture liquid containing no drug; […]\n(4) The cells were inoculated into a transwell chamber at 100 μL per well, and test solutions for each group were added to the chamber. To a 24-well plate, 0.6 mL of endothelial cell culture liquid containing 5% fetal bovine serum and 1×ECGS was added to stimulate cell migration, and incubated at 5% CO2 for 24 h at 37° C.\n(5) The culture liquid in the well was discarded. The cells were fixed with 90% alcohol at room temperature for 30 min, stained with 0.1% crystal violet for 10 min at room temperature, and rinsed with water. Un-migrated cells in the upper layer were gently wiped off by a cotton swab. The observation was carried out under microscope and four fields of view were selected for taking photos and counting. The migration inhibition (MI) was calculated according to the formula: […]\nwhere Ntest is the migration cell number in the test group, and Ncontrol is the migration cell number in the blank control group.\nThe test was repeated 3 times independently. The results obtained from the test were calculated as mean±SD, and statistical t-test was performed. P<0.05 was considered as a significant difference, and P<0.01 was considered as an extremely significant difference."}, "human glioma U87": {"test_system": "human glioma U87", "assay": "MTT assay, proliferation of human glioma U87", "type": "cell-based", "procedure": "as §1, §2, §3, §4"}}, "note": "Marks after values point to notes of the source that are not given here."}
{"molecule": "Protein II: IgG2-Fc linked to antiangiogenesis polypeptide EDSM-Y via a flexible linker; SEQ ID NO: 17 (protein) ERKCCVECPPCPAPPVAGPSVFLFPPKPKDTLMISRTPEVTCVVVDVSHEDPEVQFNWYVDGVEVHNAKTKPREEQFNSTFRVVSVLTVVHQDWLNGKEYKCKVSNKGLPAPIEKTISKTKGQPREPQVYTLPPSREEMTKNQVSLTCLVKGFYPSDISVEWESNGQPENNYKTTPPMLDSDGSFFLYSKLTVDKSRWQQGNVFSCSVMHEALHNHYTQKSLSLSPGKGGGGSGGGGSGGGGSFQPVLHLVALNSPLSGGMRGIRGADFQCFQQARAVGLAGTFRAGGGGRGD", "values": [{"measurement": "therapeutic effect on diabetic retinopathy", "setting": "[1]", "value": "a certain therapeutic effect on diabetic retinopathy"}, {"measurement": "A570 nm/A630 nm", "setting": "liver cancer cell Hep-G2; dose 1 μg/mL", "value": "0.6746 ± 0.0372"}, {"measurement": "PI (%)", "setting": "liver cancer cell Hep-G2; dose 1 μg/mL", "value": 1.49, "unit": "%"}, {"measurement": "A570 nm/A630 nm", "setting": "liver cancer cell Hep-G2; dose 2 μg/mL", "value": "0.6132 ± 0.0253"}, {"measurement": "PI (%)", "setting": "liver cancer cell Hep-G2; dose 2 μg/mL", "value": 10.46, "unit": "%"}, {"measurement": "A570 nm/A630 nm", "setting": "liver cancer cell Hep-G2; dose 4 μg/mL", "value": "0.5799 ± 0.0396"}, {"measurement": "PI (%)", "setting": "liver cancer cell Hep-G2; dose 4 μg/mL", "value": 15.32, "unit": "%"}, {"measurement": "A570 nm/A630 nm", "setting": "liver cancer cell Hep-G2; dose 8 μg/mL", "value": "0.5499 ± 0.0215"}, {"measurement": "PI (%)", "setting": "liver cancer cell Hep-G2; dose 8 μg/mL", "value": 19.70, "unit": "%"}, {"measurement": "A570 nm/A630 nm", "setting": "liver cancer cell Hep-G2; dose 16 μg/mL", "value": "0.5190 ± 0.0185"}, {"measurement": "PI (%)", "setting": "liver cancer cell Hep-G2; dose 16 μg/mL", "value": 24.21, "unit": "%"}, {"measurement": "A570 nm/A630 nm", "setting": "liver cancer cell Hep-G2; dose 32 μg/mL", "value": "0.4706 ± 0.0374"}, {"measurement": "PI (%)", "setting": "liver cancer cell Hep-G2; dose 32 μg/mL", "value": 31.28, "unit": "%"}, {"measurement": "A570 nm/A630 nm", "setting": "liver cancer cell Hep-G2; dose 64 μg/mL", "value": "0.4256 ± 0.0268"}, {"measurement": "PI (%)", "setting": "liver cancer cell Hep-G2; dose 64 μg/mL", "value": 37.85, "unit": "%"}, {"measurement": "A570 nm/A630 nm", "setting": "liver cancer cell Hep-G2; dose 128 μg/mL", "value": "0.3801 ± 0.0174"}, {"measurement": "PI (%)", "setting": "liver cancer cell Hep-G2; dose 128 μg/mL", "value": 44.49, "unit": "%"}, {"measurement": "A570 nm/A630 nm", "setting": "liver cancer cell Hep-G2; dose 256 μg/mL", "value": "0.3156 ± 0.0151"}, {"measurement": "PI (%)", "setting": "liver cancer cell Hep-G2; dose 256 μg/mL", "value": 53.91, "unit": "%"}, {"measurement": "inhibitory effect on liver cancer cell Hep-G2", "setting": "liver cancer cell Hep-G2; in words", "value": "a certain inhibitory effect"}, {"measurement": "MI (%)", "setting": "[2]; dose 0.25 μg/mL", "value": 16.12, "unit": "%"}, {"measurement": "Migration cell number", "setting": "[2]; dose 0.25 μg/mL", "value": "2108.0 ± 75.27"}, {"measurement": "MI (%)", "setting": "[2]; dose 0.5 μg/mL", "value": 52.11, "unit": "%"}, {"measurement": "Migration cell number", "setting": "[2]; dose 0.5 μg/mL", "value": "1203.5 ± 220.14**^"}, {"measurement": "MI (%)", "setting": "[2]; dose 1 μg/mL", "value": 73.06, "unit": "%"}, {"measurement": "Migration cell number", "setting": "[2]; dose 1 μg/mL", "value": "677.0 ± 24.72**^"}, {"measurement": "MI (%)", "setting": "[2]; dose 2 μg/mL", "value": 77.34, "unit": "%"}, {"measurement": "Migration cell number", "setting": "[2]; dose 2 μg/mL", "value": "569.5 ± 270.29"}, {"measurement": "MI (%)", "setting": "[2]; dose 4 μg/mL", "value": 65.86, "unit": "%"}, {"measurement": "Migration cell number", "setting": "[2]; dose 4 μg/mL", "value": "858.0 ± 145.87"}, {"measurement": "MI (%)", "setting": "[2]; dose 8 μg/mL", "value": 29.88, "unit": "%"}, {"measurement": "Migration cell number", "setting": "[2]; dose 8 μg/mL", "value": "1762.0 ± 183.97"}, {"measurement": "A570 nm/A630 nm", "setting": "human glioma U87; dose 1 μg/mL", "value": "0.6788 ± 0.0374"}, {"measurement": "PI (%)", "setting": "human glioma U87; dose 1 μg/mL", "value": 3.01, "unit": "%"}, {"measurement": "A570 nm/A630 nm", "setting": "human glioma U87; dose 2 μg/mL", "value": "0.6523 ± 0.0405"}, {"measurement": "PI (%)", "setting": "human glioma U87; dose 2 μg/mL", "value": 6.80, "unit": "%"}, {"measurement": "A570 nm/A630 nm", "setting": "human glioma U87; dose 4 μg/mL", "value": "0.6021 ± 0.0233"}, {"measurement": "PI (%)", "setting": "human glioma U87; dose 4 μg/mL", "value": 13.97, "unit": "%"}, {"measurement": "A570 nm/A630 nm", "setting": "human glioma U87; dose 8 μg/mL", "value": "0.5423 ± 0.0357"}, {"measurement": "PI (%)", "setting": "human glioma U87; dose 8 μg/mL", "value": 22.52, "unit": "%"}, {"measurement": "A570 nm/A630 nm", "setting": "human glioma U87; dose 16 μg/mL", "value": "0.5006 ± 0.0282"}, {"measurement": "PI (%)", "setting": "human glioma U87; dose 16 μg/mL", "value": 28.48, "unit": "%"}, {"measurement": "A570 nm/A630 nm", "setting": "human glioma U87; dose 32 μg/mL", "value": "0.4652 ± 0.0249"}, {"measurement": "PI (%)", "setting": "human glioma U87; dose 32 μg/mL", "value": 33.53, "unit": "%"}, {"measurement": "A570 nm/A630 nm", "setting": "human glioma U87; dose 64 μg/mL", "value": "0.4080 ± 0.0366"}, {"measurement": "PI (%)", "setting": "human glioma U87; dose 64 μg/mL", "value": 41.71, "unit": "%"}, {"measurement": "PI (%)", "setting": "human glioma U87; dose 64 μg/mL, listed as protein II", "value": "about 50%"}, {"measurement": "A570 nm/A630 nm", "setting": "human glioma U87; dose 128 μg/mL", "value": "0.3143 ± 0.0279"}, {"measurement": "PI (%)", "setting": "human glioma U87; dose 128 μg/mL", "value": 55.09, "unit": "%"}, {"measurement": "A570 nm/A630 nm", "setting": "human glioma U87; dose 256 μg/mL", "value": "0.2222 ± 0.0316"}, {"measurement": "PI (%)", "setting": "human glioma U87; dose 256 μg/mL", "value": 68.25, "unit": "%"}]}
